Data on 11 molecules can be found in patent US20250049896A1 (Regeneron, published 2025).

For assay [1], the target named is T1, hmm.hTfRC (REGN2431), human transferrin receptor extracellular domain with hexahistidine-myc-myc tag (human, UniProt P02786 89-760).
T1 construct: Monomeric recombinant protein, 79210 g/mol; also called hTFR-mmh; His-myc-myc-hTFRC ecto
Nature of the assay: SPR (Biacore), mAb captured on anti-human Fc, 100 nM hTFR-mmh, 25 C. Here is the method: (§1) Biacore binding kinetics assays were conducted for the interaction of 32 anti-human TfR IgG1 monoclonal antibodies from CHO supernatants with TfR reagents at 25° C.
(§2) Equilibrium dissociation constants (KD) for the interaction of anti-TfR monoclonal antibodies with human and fascicularis monkey TfR ecto domain recombinant proteins were determined using a real-time surface plasmon resonance (SPR) based Biacore S200 biosensor. All binding studies were performed in 10 mM HEPES, 150 mM NaCl, 3 mM EDTA, and 0.05% v/v surfactant Tween-20, pH 7.4 (HBS-EP) running buffer at […]. The Biacore CM5 sensor surface was first derivatized by amine coupling with a monoclonal mouse anti-human Fc antibody (REGN2567) followed by a step to capture anti-TfR monoclonal antibodies in CHO conditioned media. […] The dissociation of TfR bound to anti-TfR monoclonal antibodies was monitored for 3 minutes in HBS-EP running buffer. At the end of each cycle, the anti-TfR monoclonal antibodies capture surface was regenerated using a 12-sec injection of 20 mM H₃PO₄. The association rate (ka) and dissociation rate (kd) were determined by fitting the real-time binding sensorgrams to a 1:1 binding model with mass transport limitation using Scrubber 2.0 c software. The dissociation equilibrium constant (KD) and dissociative half-life (t½) were calculated from the kinetic rate constants as: […]

In assay [2] the target is T2, mf TFRC ecto-mmh (REGN2054), monomeric monkey (cyno) Tfrc ectodomain with C-terminal myc-myc-hexahistidine tag (monkey (cyno), Macaca fascicularis, UniProt H9EXL1 89-760).
T2 construct: range 89-760; also called mfTfR-mmh; mfTFR-mmh
Nature of the assay: SPR (Biacore), mAb captured on anti-human Fc, 100 nM mfTfR-mmh, 25 C. Here is the method: as §1, §2
(SPR reads the build-up and loss of mass on a sensor chip optically.)

T2 sequence (chain, as listed by the source): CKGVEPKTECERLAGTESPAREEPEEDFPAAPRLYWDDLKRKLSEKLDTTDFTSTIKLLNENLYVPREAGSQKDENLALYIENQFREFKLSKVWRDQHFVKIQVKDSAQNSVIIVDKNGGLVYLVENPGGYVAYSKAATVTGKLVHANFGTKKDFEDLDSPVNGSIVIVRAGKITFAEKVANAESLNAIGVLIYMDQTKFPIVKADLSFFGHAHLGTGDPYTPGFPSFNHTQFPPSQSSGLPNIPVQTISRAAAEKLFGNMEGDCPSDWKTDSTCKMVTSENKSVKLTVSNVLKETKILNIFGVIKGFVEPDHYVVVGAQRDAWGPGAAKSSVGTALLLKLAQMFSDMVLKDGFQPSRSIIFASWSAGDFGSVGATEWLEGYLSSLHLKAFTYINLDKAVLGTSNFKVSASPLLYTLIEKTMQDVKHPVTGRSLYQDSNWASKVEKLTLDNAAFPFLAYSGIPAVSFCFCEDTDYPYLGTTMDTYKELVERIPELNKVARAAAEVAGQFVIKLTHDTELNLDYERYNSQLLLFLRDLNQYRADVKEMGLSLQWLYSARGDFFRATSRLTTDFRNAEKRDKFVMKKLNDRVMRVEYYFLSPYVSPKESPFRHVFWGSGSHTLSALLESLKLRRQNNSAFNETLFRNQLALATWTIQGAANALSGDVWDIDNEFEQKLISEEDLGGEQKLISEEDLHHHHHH
T1 sequence (P02786 other isoform, or with tags, fused parts or gaps): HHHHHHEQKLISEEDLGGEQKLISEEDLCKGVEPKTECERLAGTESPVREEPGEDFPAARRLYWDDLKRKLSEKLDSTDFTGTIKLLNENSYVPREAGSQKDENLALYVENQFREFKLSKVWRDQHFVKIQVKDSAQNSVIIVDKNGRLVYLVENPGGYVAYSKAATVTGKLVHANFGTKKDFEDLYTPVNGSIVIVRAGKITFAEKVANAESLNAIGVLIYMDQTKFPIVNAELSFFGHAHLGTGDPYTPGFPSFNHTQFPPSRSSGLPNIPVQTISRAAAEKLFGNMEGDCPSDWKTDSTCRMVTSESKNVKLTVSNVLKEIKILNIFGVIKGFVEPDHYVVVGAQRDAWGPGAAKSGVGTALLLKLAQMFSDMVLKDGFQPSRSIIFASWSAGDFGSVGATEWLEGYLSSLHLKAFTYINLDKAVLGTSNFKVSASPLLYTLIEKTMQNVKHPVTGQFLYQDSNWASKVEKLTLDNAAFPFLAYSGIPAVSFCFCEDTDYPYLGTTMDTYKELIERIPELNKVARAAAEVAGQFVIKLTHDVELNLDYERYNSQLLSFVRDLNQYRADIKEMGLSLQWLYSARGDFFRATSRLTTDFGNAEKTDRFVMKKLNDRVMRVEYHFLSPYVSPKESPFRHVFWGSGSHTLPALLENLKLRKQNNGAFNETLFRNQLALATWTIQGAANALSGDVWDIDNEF

B1: 12798B (antibody, human IgG1, kappa, V domains shown)
VH: EVQLVESGGDLVQPGRSLRLSCAASGFTFDDYAMHWVRQAPGKGLEWVSGISWNSATRVYADSVKGRFTISRDNAKNFLYLQMNSLRSEDTALYHCAKDMDISLGYYGLDVWGQGTTVTVSS
VL: not shown
notes: Tested as bivalent human IgG1 from CHO primary supernatant; also called H1H12798B; REGN17507
In general, Kd refers to the equilibrium constant for the complex coming apart. For orientation: koff means a measure of how fast the partners let go of each other. As usually defined, the kon is the rate constant with which the complex forms. Usually t½ stands for the time in which the quantity being followed falls by half. With B1, in assay [1], the “100 nM Ag Bound (RU)” value is 1150 RU, the Kd turned out to be 0.387 nM, the koff stood at 6.33e-05 s⁻¹ and the kon worked out at 163000 M⁻¹ s⁻¹. Further, the t½ in assay [1] was 183 min. For the same molecule, in assay [2], the “100 nM Ag Bound (RU)” value stood at 508 RU, the Kd is 16.3 nM, the koff stood at 0.00129 s⁻¹ and the kon stood at 79000 M⁻¹ s⁻¹. This molecule also returned a t½ in assay [2] of 9 min.

B2: 12844B (antibody, human IgG1, kappa, V domains shown)
VH: EVQLVESGGSVVRPGGSLRLSCEASGFTFDDYGMSWVRQDPGKGLEWVSGINWNGDRTNYADSVKGRFIISRDNAKNSVYLQMNSLRAEDSALYHCARDQGLGVAATLDYWGQGTLVTVSS
VL: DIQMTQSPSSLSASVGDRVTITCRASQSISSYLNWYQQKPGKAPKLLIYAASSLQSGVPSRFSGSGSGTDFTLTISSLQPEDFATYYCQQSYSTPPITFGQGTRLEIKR
notes: Tested as bivalent human IgG1 from CHO primary supernatant
As to B2, in assay [1], the “100 nM Ag Bound (RU)” value is 946 RU, binding was put at a Kd of 0.935 nM, the koff was 0.000122 s⁻¹ and the kon amounted to 131000 M⁻¹ s⁻¹. The t½ in assay [1] was found to be 95 min. Further, in assay [2], the “100 nM Ag Bound (RU)” value is 437 RU, the Kd was 9.68 nM, the off-rate (koff) stood at 0.000735 s⁻¹ and the kon stood at 75900 M⁻¹ s⁻¹. In addition, the t½ in assay [2] was determined as 15.7 min.

B3: 12850B (antibody, human IgG1, kappa, V domains shown)
VH: QVQLVQSGAEVKKPGSSVKVSCKASGGTFNTYAITWVRQAPGQGLEWMGGIIPISGIAEYAQKFQGRVTITTDDSSTTAYMELNSLRSEDTAVYYCASWNYALYYFYGMDVWGRGTTVTVSS
VL: not shown
notes: Tested as bivalent human IgG1 from CHO primary supernatant; also called H1H12850B; REGN17516
Take B3: in assay [1], the “100 nM Ag Bound (RU)” value came out at 725 RU; the affinity, expressed as Kd, was 0.215 nM; the koff worked out at 1.76e-05 s⁻¹; the kon turned out to be 83700 M⁻¹ s⁻¹. In assay [1], this molecule returned a t½ of 657 min. Besides, in assay [2], the “100 nM Ag Bound (RU)” value turned out to be 87 RU, the Kd amounted to 15.5 nM, the off-rate (koff) stood at 0.00157 s⁻¹ and the kon came to 101000 M⁻¹ s⁻¹. Further, the t½ in assay [2] worked out at 7.3 min.

B4: 12843B (antibody, human IgG1, kappa, V domains shown)
VH: EVQLVESGGGLVQPGGSLRLSCAASGFTFNIFEMNWVRQAPGKGLEWISYISSRGTTTYYADSVRGRFTISRDNAKNSLYLQMNSLRAEDTAVYYCARDYEATIPFDFWGQGTLVTVSS
VL: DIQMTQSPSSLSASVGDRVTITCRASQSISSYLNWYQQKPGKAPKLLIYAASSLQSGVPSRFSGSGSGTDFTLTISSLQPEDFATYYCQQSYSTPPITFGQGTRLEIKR
notes: Tested as bivalent human IgG1 from CHO primary supernatant; also called H1H12843B; REGN17512
With B4, in assay [1], the “100 nM Ag Bound (RU)” value came to 854 RU, binding was put at a Kd of 1.78 nM, the koff is 0.000168 s⁻¹ and the kon came out at 94200 M⁻¹ s⁻¹. In assay [1], this molecule returned a t½ of 68.8 min. Further, in assay [2], the “100 nM Ag Bound (RU)” value was determined as 399 RU, binding was characterised by a dissociation constant (Kd) of 15 nM, the koff worked out at 0.00118 s⁻¹ and the association rate constant (kon) is 79000 M⁻¹ s⁻¹. This molecule also showed a t½ in assay [2] of 9.8 min.

B5: 12802B (antibody, human IgG1, kappa, V domains shown)
VH: QVQLVESGGGLVKPGGSLRLSCAASGFTFSDYFMSWIRQAPGKGLEWVSYISSTGSTINYADSVKGRFTISRDNVKNSLYLQMTSLRVEDTAVYYCTRDNWNYEYWGQGTLVTVSS
VL: EIVMTQSPATLSVSPGERATLSCRASQSVSINLAWYQQKPGQAPRLLIFVASTRATGIPARFSGSGSGTEFTLTISSLQSEDFATYYCQQYDIWPYTFGQGTKLEIKR
notes: as for B2
On to B5, for which, in assay [1], the “100 nM Ag Bound (RU)” value came out at 903 RU, the Kd is 0.236 nM, the koff was found to be 2.92e-05 s⁻¹ and the kon came out at 123000 M⁻¹ s⁻¹. In assay [1], this molecule displayed a t½ of 395 min. In assay [2], the “100 nM Ag Bound (RU)” value came out at 464 RU, the Kd came out at 7.51 nM, the koff was found to be 0.000529 s⁻¹ and the kon was found to be 70500 M⁻¹ s⁻¹. The molecule also returned a t½ in assay [2] of 21.8 min.

B6: 12848B (antibody, human IgG1, kappa, V domains shown)
VH: EVQLVESGGGLVQPGRSLTLSCAASGFTFDNFGMHWVRQGPGKGLEWVSGLTWNSGVIGYADSVKGRFTISRDNAKNSLYLQMNSLRPEDTALYYCAKDIRNYGPFDYWGQGTLVTVSS
VL: not shown
notes: Tested as bivalent human IgG1 from CHO primary supernatant; also called H1H12848B; REGN17515
Turning to B6, in assay [1], the “100 nM Ag Bound (RU)” value came to 823 RU, the Kd stood at 0.494 nM, the koff was 4.99e-05 s⁻¹ and the kon stood at 101000 M⁻¹ s⁻¹. The same molecule displayed a t½ in assay [1] of 232 min. Besides, in assay [2], the “100 nM Ag Bound (RU)” value was 261 RU, the Kd came out at 18.2 nM, the koff stood at 0.000962 s⁻¹ and the kon came to 52900 M⁻¹ s⁻¹. The t½ in assay [2] worked out at 12 min.

B7: 12847B (antibody, human IgG1, kappa, V domains shown)
VH: EVQLVESGGGLVQPGRSLRLSCAASGFTFDDYAMNWVRQAPGKGLEWVSGISWSSGSMDYADSVKGRFTISRDNAKNSLYLQMNSLRTEDTALYYCAKAREVGDYYGMDVWGQGTTVTVSS
VL: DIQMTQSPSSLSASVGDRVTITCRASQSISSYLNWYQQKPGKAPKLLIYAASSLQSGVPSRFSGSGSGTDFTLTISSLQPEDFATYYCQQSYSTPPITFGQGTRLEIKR
notes: Tested as bivalent human IgG1 from CHO primary supernatant; also called H1H12847B; REGN17514
Turning to B7, in assay [1], the “100 nM Ag Bound (RU)” value is 895 RU, binding was characterised by a dissociation constant (Kd) of 1.62 nM, the koff was 0.000171 s⁻¹ and the on-rate constant (kon) worked out at 105000 M⁻¹ s⁻¹. Also, the t½ in assay [1] turned out to be 67.6 min. In assay [2], the “100 nM Ag Bound (RU)” value stood at 702 RU, the Kd was 3.36 nM, the koff stood at 0.000333 s⁻¹ and the kon stood at 99200 M⁻¹ s⁻¹. The molecule further yielded a t½ in assay [2] of 34.7 min.

B8: 12801B (antibody, human IgG1, kappa, V domains shown)
VH: EVQLLESGGALVQPGGSLRLSCAASGFTFTSYAMHWVRQAPGKGLEWVSSIRGSGGGTYSADSVKGRFTISRDNSRDTLYLQMNSVRAEDTAVYYCARSHDYGAFDFFDYWGQGTLVTVSS
VL: DIQMTQSPSSLSASVGDRVTITCRASQGIRTDLGWYQQKPGKAPKRLIYAASSLQSGVPSRFSGSGSGTEFTLTISSLRPEDFATFYCLQYNSYPLTFGGGTKVEIKR
notes: as for B2
As for B8, in assay [1], the “100 nM Ag Bound (RU)” value is 598 RU; the affinity, expressed as Kd, was 0.513 nM; the koff was determined as 4.19e-05 s⁻¹; the kon stood at 81900 M⁻¹ s⁻¹. For the same molecule, in assay [1], the t½ worked out at 276 min. In assay [2], the “100 nM Ag Bound (RU)” value was determined as 159 RU, binding was put at a Kd of 10.2 nM, the koff stood at 0.000653 s⁻¹ and the kon stood at 64000 M⁻¹ s⁻¹. Also, in assay [2], the t½ was determined as 17.7 min.

B9: 12799B (antibody, human IgG1, kappa, V domains shown)
VH: QITLKESGPTLVKPTQTLTLTCTFSGFSLSTSGVGVVWIRQPPGKALEWLALIYWNDHKRYSPSLGSRLTITKDTSKNQVVLTMTNMDPVDTATYYCAHYSGSYSYYYYGLDVWGQGTTVTVSS
VL: DIQMTQSPSSVSASVGDRVTITCRASQGIASWLAWYQQKPGKAPELLIYAASSLQGGVPSRFSGSGSGTDFTLTISSLQPEDFAIYYCQQANYFPWTFGQGTKVEIKR
notes: Tested as bivalent human IgG1 from CHO primary supernatant; also called H1H12799B; REGN17508
As to B9, in assay [1], the “100 nM Ag Bound (RU)” value worked out at 699 RU, the dissociation constant (Kd) amounted to 0.851 nM, the koff turned out to be 6.62e-05 s⁻¹ and the kon stood at 77600 M⁻¹ s⁻¹. In assay [1], this molecule showed a t½ of 174 min. Also, in assay [2], the “100 nM Ag Bound (RU)” value amounted to 651 RU, binding was characterised by a dissociation constant (Kd) of 1.88 nM, the koff was 0.000162 s⁻¹ and the kon worked out at 86400 M⁻¹ s⁻¹. In assay [2], this molecule had a t½ of 71.2 min.

B10: 12835B (antibody, human IgG1, kappa, V domains shown)
VH: EVQLVESGGGLIQPGGSLRLSCEASGFTFRNYEMNWVRQAPGKGLEWVSYISSSGNMKDYAESVKGRFTISRDNVKNSLQLQMNSLRVEDTAVYYCARDEFPYGMDVWGQGTTVTVSS
VL: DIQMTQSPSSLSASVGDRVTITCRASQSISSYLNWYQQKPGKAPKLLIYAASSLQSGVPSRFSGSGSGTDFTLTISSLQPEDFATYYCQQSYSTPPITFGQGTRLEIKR
notes: Tested as bivalent human IgG1 from CHO primary supernatant; also called H1H12835B; REGN17509
As for B10, in assay [1], the “100 nM Ag Bound (RU)” value is 1150 RU, the Kd was 3.11 nM, the koff came out at 0.000417 s⁻¹ and the kon was 134000 M⁻¹ s⁻¹. The molecule further displayed a t½ in assay [1] of 27.7 min. In assay [2], the “100 nM Ag Bound (RU)” value was determined as 254 RU, the Kd turned out to be 17.7 nM, the koff amounted to 0.00168 s⁻¹ and the kon came out at 95100 M⁻¹ s⁻¹. The molecule further registered a t½ in assay [2] of 6.9 min.

B11: 12808B (antibody, human IgG1, kappa, V domains shown)
VH: QLQLQESGPGLVKPSETLSLTCTVSGESISSNTYYWGWIRQPPGKGLEWIGSIDYSGTTNYNPSLKSRVTISVDTSRNHFSLRLRSVTAADTAVYYCAREWGNYGYYYGMDVWGQGTTVTVSS
VL: DIQMTQSPSSLSASVGDRVTINCRASQGIRNDLGWYQQKPGKAPKRLIYAASSLQSGVPLRFSGSGSGTEFTLTINNLQPEDFATYYCLSHNSYPWTFGQGTKVEIKR
notes: as for B2
As to B11, in assay [1], the “100 nM Ag Bound (RU)” value worked out at 964 RU, binding was put at a Kd of 0.894 nM, the koff was 0.000107 s⁻¹ and the kon amounted to 119000 M⁻¹ s⁻¹. In addition, in assay [1], the t½ was determined as 108 min. In addition, in assay [2], the “100 nM Ag Bound (RU)” value is 626 RU, binding was put at a Kd of 5.78 nM, the koff was determined as 0.000454 s⁻¹ and the kon amounted to 78500 M⁻¹ s⁻¹. The molecule further showed a t½ in assay [2] of 25.5 min.
